Residue numbers refer to the chain shown, from its start.
Assays:
Assay in all cases: SPR, antibody captured, C2 as analyte;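 note: biacore at 37 °C, anti-C2 mAbs held by immobilised goat anti-human IgG, C2 alanine or serine mutants injected, double-referenced sensorgrams fitted to a 1:1 kinetic or steady-state model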
human C2 N467A = molecular target: T1, human C2 N467A (human, UniProt P06681 21-752)
T1 sequence: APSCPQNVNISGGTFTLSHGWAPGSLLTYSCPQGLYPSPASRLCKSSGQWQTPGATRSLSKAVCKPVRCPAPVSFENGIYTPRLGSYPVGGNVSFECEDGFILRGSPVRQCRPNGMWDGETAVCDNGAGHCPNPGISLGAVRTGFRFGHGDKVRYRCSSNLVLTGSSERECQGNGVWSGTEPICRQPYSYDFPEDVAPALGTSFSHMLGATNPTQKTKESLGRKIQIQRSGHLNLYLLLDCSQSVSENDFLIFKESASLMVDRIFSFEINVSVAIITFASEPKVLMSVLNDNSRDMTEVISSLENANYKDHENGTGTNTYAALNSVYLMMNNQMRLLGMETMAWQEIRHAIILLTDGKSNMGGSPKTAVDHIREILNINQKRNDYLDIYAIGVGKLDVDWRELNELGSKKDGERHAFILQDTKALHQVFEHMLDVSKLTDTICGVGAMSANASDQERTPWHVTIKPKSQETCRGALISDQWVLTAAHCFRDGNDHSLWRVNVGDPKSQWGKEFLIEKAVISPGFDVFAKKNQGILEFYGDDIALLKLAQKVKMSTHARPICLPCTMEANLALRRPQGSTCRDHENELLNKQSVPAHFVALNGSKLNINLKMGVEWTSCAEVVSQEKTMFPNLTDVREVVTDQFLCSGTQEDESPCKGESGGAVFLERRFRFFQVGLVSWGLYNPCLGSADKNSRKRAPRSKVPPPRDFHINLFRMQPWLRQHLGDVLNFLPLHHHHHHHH

human C2 M452A = molecular target: T2, human C2 M452A (human, UniProt P06681 21-752)
T2 sequence: T1 sequence with M432A, A447N

human C2 G432A = molecular target: T3, human C2 G432A (human, UniProt P06681 21-752)
T3 sequence: T1 sequence with G412A, A447N

human C2 N403A = molecular target: T4, human C2 N403A (human, UniProt P06681 21-752)
T4 sequence: T1 sequence with N383A, A447N

B1: RF16-242 (antibody, human IgG4 S228P, lambda, V domains shown)
VH: EVQLLQSGAEVKKPGESLKISCKGSGYSFTSYWIGWVRQMPGKGLEWMGIIYPGDSDTRYSPSFQGQVTISADKSISTAYLQWSSLKASDTAMYYCARRGHYGDYFDYWGQGTLVTVSS
VL: SYELTQPPSVSVSPGQTARITCSGDALPKKYAYWYHQKSGQAPVLVIYEDRRRPSEIPERFSGSSSGTMATLTITGAQVEDEGVYFCYSRDRAGNQRVFGGGTQLTVLG
notes: pH-dependent anti-C2 antibody from a phage display library
Kd (human C2 N467A): 13.4 nM
Kd (human C2 M452A): 5.3 nM
Kd (human C2 G432A): 8.8 nM
Kd (human C2 N403A): 8.2 nM
